Measurements: patent publication US5814612A, “Retinol derivatives and uses thereof” (priority 1992, dated 1998)
Entries after “also recorded” stand apart in the source; their conditions may differ.

B1: IL-4: murine rIL-4 (protein, UniProt P07750 21-140, looked up)
Interleukin-4: HIHGCDKNHLREIIGILNEVTGEGTPCTEMDVPNVLTATKNTTESELVCRASKVLRIFYLKHGKTPCLKKNSSVLMELQRLFRAFRCLDSSISCTMNESKSTSLKDFLESLKSIMQMDYS
B2: IL-1: Human recombinant IL-1-α (protein, UniProt P01583 113-271, looked up)
Interleukin-1 alpha: SAPFSFLSNVKYNFMRIIKYEFILNDALNQSIIRANDQYLTAAALHNLDEAVKFDMGAYKSSKDDAKITVILRISKTQLYVTAQDEDQPVLLKEMPEIPKTITGSETNLLFFWETHGTKNYFTSVAHPNLFIATKQDYWVCLAGGPPSITDFQILENQA
B3: IFN-gamma: mouse recombinant IFN-gamma (protein, UniProt P01580 23-155, looked up)
Interferon gamma: HGTVIESLESLNNYFNSSGIDVEEKSLFLDIWRNWQKDGDMKILQSQIISFYLRLFEVLKDNQAISNNISVIESHLITTFFSNSKAKKDAFMSIAKFEVNNPQVQRQAFNELIRVVHQLLPESSLRKRKRSRC

Columns and labels:
[1] = test system: thymocytes; experiment: Proliferation of anti-CD3 activated thymocytes in serum-free ITLB medium; type: cell-based, BALB/c mouse; conditions: for ability of cytokine to replace retinol: absence of retinol; for growth-stimulating effect, anti-CD3, no Retinol / growth-stimulating effect, anti-CD3, 10^-6 M Retinol: 3 days, IL-1 10, IL-2 2, IL-4 5, IL-6 5, IFN-gamma 40, TNF-alpha 12, IL-2 + IL-4 2/5 U/ml; for growth-stimulating effect, anti-CD3, 10^-6 M Retinol: with 10^-6 M retinol (head), Retinol: stimulating agent none
Method: FIG. 14A: Purified BALB/c thymocytes were activated with immobilized anti-CD3e antibody and cultivated for four days in ITLB medium with or without retinol (3×10^-6 M), 14HRR (6×10^-7 M) (fresh 14HRR was added every 12 hours), human serum (3%) or FCS (10%) at the cellular densities shown. Proliferation was assayed by tritiated thymidine incorporation into cellular DNA.
FIG. 14B: BALB/c thymocytes (10^6 /ml) were added to microtiter plates coated with titrated amounts of anti-CD3e antibody with […] retinol or without, as indicated. Proliferation was measured in hexaduplicate wells on day 3 by ^3 H thymidine incorporation assay.
Purified thymocytes (5×10^5 cells/well) were stimulated by TCR crosslinking with immobilized anti-CD3e antibody (FIG. 15A) or 0.4 μg/ml Con A (FIG. 15B) in serum-free ITLB medium. The indicated amounts of retinoids were added either once at the beginning of the experiment (marked as "1×") or every 12 hours thereafter (marked as "6×"). DNA synthesis was measured after 72 hours by tritiated thymidine uptake as described.
Purified thymocytes (10^5 cells/well) were activated with anti-CD3 antibody in ITLB medium with or without retinol (3×10^-6 M), 14HRR (6×10^-7, added every 12 hours or human serum (3%)). DNA synthesis was measured daily by a 4 hour pulse of tritiated thymidine.
Thymocytes (5×10^4 /well) were activated by immobilized anti-CD3 mAb in medium ITLB. Retinol (2×10^-6 M) was added at initiation of culture, or delayed by 12 hours and 24 hours, respectively, or omitted altogether. ^3 H thymidine pulses of 4 hours were used to measure DNA synthesis of hexaduplicate wells.
Thymuses of 3 to 6-week-old BALB/c mice were teased in serum-free RPMI medium supplemented with 1% BSA, 10^-6 M linoleic acid and antibiotics. Depletion of accessory cells was achieved by two cycles of complement-dependent lysis with a mixture of anti-IA^d (5 μg/ml) and anti-IE^d (1:500 diluted ascites fluid). Briefly, cells were incubated on ice for 30 minutes with Ia antibodies, spun down, resuspended in 1:40 diluted rabbit complement, and incubated at 37° C. for 45 minutes. Incubations and two subsequent washes were carried out with RPMI medium containing 1% BSA. Cell viability was evaluated by trypan blue dye exclusion. To determine the extent of depletion of accessory cells, samples were stained with FITC-conjugated anti-Fc receptor antibody and analyzed by flow cytometry on a FACScan instrument (Becton Dickinson).
Cells were cultured in serum-free medium, referred to as ITLB, containing RPMI 1640 supplemented with 8×10^-7 M insulin (5 μg/ml), 7×10^-8 M transferrin (5 μg/ml), 2×10^-6 M linoleic acid, 2×10^-6 M delipidated BSA (0.12 mg/ml), 2 mM L-glutamine, 1 mM sodium pyruvate and antibiotics. They were seeded into 96-well flat-bottom plates at varying cellular densities in a final volume of 100 μl. In control experiments, cells were cultured in medium containing 10% FCS or 3% human serum and 5×10^-5 M 2ME. T cells and thymocytes were activated with immobilized, purified anti-mAb CD3e or by the addition of Con A in the presence or absence of different concentrations of retinoids. Unless indicated otherwise, retinoids were replenished every 12 hours to maintain a reasonably constant concentration of these labile compounds in culture. […] Cultures were carried out in duplicate. Plates were incubated at 37° C. in a humidified 5% CO2 atmosphere. Cellular proliferation was determined by [^3 H] thymidine uptake (0.5 uCi/well; New England Nuclear, Boston, Mass.) after the incubation times indicated for each experiment with a 4 hour labeling pulse.

[2] = test system: T cells; experiment: T cell activation and proliferation, retinol cofactor requirement; type: cell-based, murine
Method: They were seeded into 96-well flat-bottom plates at varying cellular densities in a final volume of 100 μl. In control experiments, cells were cultured in medium containing 10% FCS or 3% human serum and 5×10^-5 M 2ME. […] Cultures were carried out in duplicate. Plates were incubated at 37° C. in a humidified 5% CO2 atmosphere. Cellular proliferation was determined by [^3 H] thymidine uptake (0.5 uCi/well; New England Nuclear, Boston, Mass.) after the incubation times indicated for each experiment with a 4 hour labeling pulse. Cells were harvested onto glass filter and [^3 H]TdR incorporation was determined by liquid scintillation counting. The data presented are the means of duplicate or six replicate cultures. The restriction to duplicate measurements was necessary to conserve scarce 14HRR. […] Each experiment was repeated at least twice.

[3] = test system: 5/2 cells; type: in vitro ADME, human
Method: 5/2 cells (10^6 cells in 10 ml HB 101 medium) were incubated with all-trans-[^3 H] retinol (10 uCe/ml). After 24 hours, retinoids were extracted from the washed cell pellet and unlabeled marker retinoids were added. The crude extract was loaded on an analytical reversed-phase C-18 column. Retinoids were eluted with the shown linear gradient of water/methanol/chloroform. The flow rate was 0.5 ml/min. DPM were determined with an on line scintillation counter. Reference retinoids were the all-trans forms of 0: 3,4-didehydroretinoic acid, 1: all-trans-retinoic acid, 2: 3,4-didehydroretinol, 3: retinol, 4: retinyl linoleate, 5: retinyl oleate, 6: retinyl palmitate. Shaded area corresponds to P3. Cross-hatched area corresponds to P1.
Lymphoblastoid 5/2 cells grown in the presence of 10^-6 M retinol were spiked with ^3 H-labeled retinol. After 16 hours the cell pellet was delipidated according to the method of McLean et al. and separated on a reversed phase C-18 HPLC column (FIG. 7). […] Three peaks, P1, P2 and P3, could not be immediately identified. One peak eluting at 36-39 minutes (corresponding 83% methanol 7% water) provisionally called P3, but now known as 14HRR, was unusual because unlike P1 eluting at 31-34 minutes, its relative amount increased when the retinol concentration was lowered or when retinol was given to the cells bound to RBP. […] Since HeLa cells contain 14HRR, these cells were also used. 50 ml of packed HeLa cells (10^10 cells) yielded 25 OD348nmunits of pure P3 after the following sequence of steps: 1. Growth in the presence of 10^-5 M retinol; 2. Extraction of cell pellet according to McClean et al. (13); 3. Preparative C-18 HPLC column eluted with a water/methanol gradient; 4. semipreparative C18 HPLC column eluted with a water/acetonitrile gradient; 5. analytical C4 column eluted with a water/methanol gradient.

Molecule	ability to substitute for retinol in T cell activation (words) [2]	ability of cytokine to replace retinol [1]	growth-stimulating effect, anti-CD3, no Retinol [1]	growth-stimulating effect, anti-CD3, 10^-6 M Retinol [1]	other results
CC1=C(/C=C/C(C)=C/C=C/C(C)=C\CO)C(C)(C)CCC1 [13-cis-retinol]	can substitute for retinal				effectiveness relative to retinol ([1]; anti-CD3, 14HRR at 12 hour intervals): equally effective as all-trans retinol
IL-6: hrIL-6		None of the four interleukins, IL-1, IL-2, IL-4 or IL-6, was capable of overcoming the requirement for retinal; also recorded: none of the interleukins tested (IL-1, IL-2, IL-4 and IL-6) nor TNF-alpha are substitutes for retinol	1,005 ± 815 CPM	130,590 ± 25,803 CPM	
CC1=C(/C=C/C(C)=C/C=C/C(C)=C/CO)C(C)(C)CC=C1 [3,4-didehydroretinol]					detection as metabolite of retinol [3]: not detectable
TNF-alpha	cannot be satisfied by retinoic acid or interleukins 1, 2, 4 and 6, and TNF-alpha	none of the interleukins tested (IL-1, IL-2, IL-4 and IL-6) nor TNF-alpha are substitutes for retinol	464 ± 95 CPM	122,905 ± 11,577 CPM	ability of cytokine to replace retinol ([1]; listed as TNF-α): does not
CC1=C(/C=C/C(C)=C/C=C/C(C)=C/C(=O)O)C(C)(C)CC=C1 [3,4-didehydroretinol acid, 3,4-didehydroretinoic acid]					detection as metabolite of retinol [3]: not detectable
B1		None of the four interleukins, IL-1, IL-2, IL-4 or IL-6, was capable of overcoming the requirement for retinal; also recorded: none of the interleukins tested (IL-1, IL-2, IL-4 and IL-6) nor TNF-alpha are substitutes for retinol	991 ± 105 CPM	115,849 ± 20,630 CPM	
B2		None of the four interleukins, IL-1, IL-2, IL-4 or IL-6, was capable of overcoming the requirement for retinal; also recorded: none of the interleukins tested (IL-1, IL-2, IL-4 and IL-6) nor TNF-alpha are substitutes for retinol	959 ± 30 CPM	118,924 ± 3,051 CPM	
B3	can substitute for retinol	can circumvent the retinol requirement and initiate durable proliferation in the absence of retinol or 14HRR	81,876 ± 11,868 CPM	220,359 ± 27,726 CPM	ability of cytokine to replace retinol ([1]; listed as interferon-gamma): can sustain thymocyte proliferation in the absence of retinol; also recorded: quite efficient in anti-CD3-mediated activation in the absence of retinol; effect of cytokine combined with retinol [1]: strong additive effects; effect of cytokine combined with retinol ([1]; listed as Interferon-gamma): clear additive effect with retinol
